Assay results as given in the supplement of paper PMC10065799, “High-throughput profiling of sequence recognition by tyrosine kinases and SH2 domains using bacterial peptide display” (eLife, 2023).

Columns and labels:
c-Abl (mouse) = test: phosphorylation enrichment, bacterial display (enrichment ratio); higher = better substrate or ligand; peptides without Tyr show the background
Fer (mouse) = test: as above
Hck = Hck (UniProt P08631); test: as above
c-Src = test: as above
FGFR3 = FGFR3 (UniProt P22607); test: as above
Sequence of FGFR3 (P22607 whole entry, looked up): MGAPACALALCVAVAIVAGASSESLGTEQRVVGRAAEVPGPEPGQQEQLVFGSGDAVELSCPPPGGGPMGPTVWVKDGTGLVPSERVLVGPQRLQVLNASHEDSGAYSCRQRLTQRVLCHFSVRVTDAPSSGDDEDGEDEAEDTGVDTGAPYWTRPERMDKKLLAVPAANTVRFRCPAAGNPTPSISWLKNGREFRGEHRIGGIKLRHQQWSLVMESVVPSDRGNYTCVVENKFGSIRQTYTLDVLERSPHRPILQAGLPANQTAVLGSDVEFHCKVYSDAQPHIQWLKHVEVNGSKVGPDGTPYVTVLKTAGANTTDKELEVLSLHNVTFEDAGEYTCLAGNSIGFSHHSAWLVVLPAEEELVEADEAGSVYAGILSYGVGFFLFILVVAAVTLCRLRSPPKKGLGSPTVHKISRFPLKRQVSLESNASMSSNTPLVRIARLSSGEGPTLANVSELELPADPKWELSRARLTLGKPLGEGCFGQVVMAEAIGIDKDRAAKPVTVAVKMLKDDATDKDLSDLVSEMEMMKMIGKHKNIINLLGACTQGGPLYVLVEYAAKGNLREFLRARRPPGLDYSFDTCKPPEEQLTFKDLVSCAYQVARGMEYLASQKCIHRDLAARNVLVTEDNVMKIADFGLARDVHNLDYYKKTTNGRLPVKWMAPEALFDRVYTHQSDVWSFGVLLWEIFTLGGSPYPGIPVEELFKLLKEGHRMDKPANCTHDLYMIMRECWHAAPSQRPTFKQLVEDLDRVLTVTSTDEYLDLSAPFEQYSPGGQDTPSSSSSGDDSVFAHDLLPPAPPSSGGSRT

Fyn = Fyn (UniProt P06241); test: as above
Sequence of Fyn (P06241 whole entry, looked up): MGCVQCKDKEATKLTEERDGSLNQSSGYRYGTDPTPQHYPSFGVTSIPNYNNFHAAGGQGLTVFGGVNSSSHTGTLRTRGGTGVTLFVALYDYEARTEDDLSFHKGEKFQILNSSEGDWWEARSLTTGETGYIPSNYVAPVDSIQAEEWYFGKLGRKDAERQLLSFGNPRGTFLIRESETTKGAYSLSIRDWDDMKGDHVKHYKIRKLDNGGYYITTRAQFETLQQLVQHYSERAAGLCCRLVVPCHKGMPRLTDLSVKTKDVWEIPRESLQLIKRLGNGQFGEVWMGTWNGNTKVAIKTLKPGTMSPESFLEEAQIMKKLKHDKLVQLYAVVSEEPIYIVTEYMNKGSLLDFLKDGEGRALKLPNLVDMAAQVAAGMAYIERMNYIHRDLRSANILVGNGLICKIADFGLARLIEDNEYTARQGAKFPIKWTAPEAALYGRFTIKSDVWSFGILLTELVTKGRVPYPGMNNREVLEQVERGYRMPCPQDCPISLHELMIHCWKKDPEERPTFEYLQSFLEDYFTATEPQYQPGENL

MERTK = MERTK (UniProt Q12866); test: as above
EPHB1 = EPHB1 (UniProt P54762); test: as above
Jak2 = Jak2 (UniProt O60674); test: as above
EPHB2 = EPHB2 (UniProt P29323); test: as above
Sequence of EPHB2 (P29323 whole entry, looked up): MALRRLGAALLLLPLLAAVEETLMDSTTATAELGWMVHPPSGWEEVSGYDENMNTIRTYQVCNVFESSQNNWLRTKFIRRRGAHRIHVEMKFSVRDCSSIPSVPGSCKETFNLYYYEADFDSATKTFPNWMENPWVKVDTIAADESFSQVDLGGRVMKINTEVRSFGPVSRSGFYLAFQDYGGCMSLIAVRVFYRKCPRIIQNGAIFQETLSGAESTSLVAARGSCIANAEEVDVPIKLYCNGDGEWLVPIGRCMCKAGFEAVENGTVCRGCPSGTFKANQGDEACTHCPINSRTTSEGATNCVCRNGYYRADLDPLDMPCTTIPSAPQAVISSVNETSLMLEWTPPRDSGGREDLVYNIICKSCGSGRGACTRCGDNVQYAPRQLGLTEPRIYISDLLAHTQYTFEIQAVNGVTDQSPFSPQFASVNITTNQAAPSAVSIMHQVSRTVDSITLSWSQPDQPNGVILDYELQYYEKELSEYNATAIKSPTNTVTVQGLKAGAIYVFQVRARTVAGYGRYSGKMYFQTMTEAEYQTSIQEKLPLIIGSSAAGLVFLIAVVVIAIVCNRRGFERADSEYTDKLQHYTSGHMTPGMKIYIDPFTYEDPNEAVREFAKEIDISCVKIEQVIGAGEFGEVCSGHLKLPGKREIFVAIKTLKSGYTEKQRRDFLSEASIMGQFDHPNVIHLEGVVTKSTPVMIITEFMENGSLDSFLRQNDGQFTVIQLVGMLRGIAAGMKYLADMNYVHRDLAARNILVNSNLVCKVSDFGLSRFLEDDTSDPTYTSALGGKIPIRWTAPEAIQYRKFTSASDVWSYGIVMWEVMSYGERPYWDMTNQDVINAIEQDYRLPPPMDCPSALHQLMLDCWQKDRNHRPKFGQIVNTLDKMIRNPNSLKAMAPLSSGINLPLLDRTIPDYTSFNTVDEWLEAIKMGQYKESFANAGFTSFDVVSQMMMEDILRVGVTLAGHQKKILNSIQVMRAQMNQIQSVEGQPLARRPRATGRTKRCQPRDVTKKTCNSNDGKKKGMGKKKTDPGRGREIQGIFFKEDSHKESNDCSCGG

AncSZ = test: as above
Fes = Fes (UniProt P07332); test: as above
Sequence of Fes (P07332 whole entry, looked up): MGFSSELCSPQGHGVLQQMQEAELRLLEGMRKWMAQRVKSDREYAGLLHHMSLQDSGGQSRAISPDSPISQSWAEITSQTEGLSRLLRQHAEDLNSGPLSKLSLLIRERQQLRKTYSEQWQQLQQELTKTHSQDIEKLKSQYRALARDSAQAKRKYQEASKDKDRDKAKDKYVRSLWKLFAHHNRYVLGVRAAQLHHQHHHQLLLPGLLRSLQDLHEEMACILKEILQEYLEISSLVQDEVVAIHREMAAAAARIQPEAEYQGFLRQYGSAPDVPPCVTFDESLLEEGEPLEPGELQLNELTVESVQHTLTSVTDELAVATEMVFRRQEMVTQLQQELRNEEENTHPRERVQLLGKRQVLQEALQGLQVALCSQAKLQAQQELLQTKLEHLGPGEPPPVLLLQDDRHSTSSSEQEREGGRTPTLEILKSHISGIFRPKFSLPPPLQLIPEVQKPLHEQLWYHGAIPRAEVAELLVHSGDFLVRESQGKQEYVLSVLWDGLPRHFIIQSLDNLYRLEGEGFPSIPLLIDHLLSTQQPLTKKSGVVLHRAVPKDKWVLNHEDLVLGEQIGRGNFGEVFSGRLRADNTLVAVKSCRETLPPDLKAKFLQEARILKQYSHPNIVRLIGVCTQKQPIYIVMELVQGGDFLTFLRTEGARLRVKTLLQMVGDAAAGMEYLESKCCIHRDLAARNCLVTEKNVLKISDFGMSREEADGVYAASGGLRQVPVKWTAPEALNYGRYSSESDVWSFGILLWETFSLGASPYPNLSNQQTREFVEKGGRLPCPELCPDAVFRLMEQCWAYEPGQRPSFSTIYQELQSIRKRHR

FGFR1 = FGFR1 (UniProt P11362); test: as above
Sequence of FGFR1 (P11362 whole entry, looked up): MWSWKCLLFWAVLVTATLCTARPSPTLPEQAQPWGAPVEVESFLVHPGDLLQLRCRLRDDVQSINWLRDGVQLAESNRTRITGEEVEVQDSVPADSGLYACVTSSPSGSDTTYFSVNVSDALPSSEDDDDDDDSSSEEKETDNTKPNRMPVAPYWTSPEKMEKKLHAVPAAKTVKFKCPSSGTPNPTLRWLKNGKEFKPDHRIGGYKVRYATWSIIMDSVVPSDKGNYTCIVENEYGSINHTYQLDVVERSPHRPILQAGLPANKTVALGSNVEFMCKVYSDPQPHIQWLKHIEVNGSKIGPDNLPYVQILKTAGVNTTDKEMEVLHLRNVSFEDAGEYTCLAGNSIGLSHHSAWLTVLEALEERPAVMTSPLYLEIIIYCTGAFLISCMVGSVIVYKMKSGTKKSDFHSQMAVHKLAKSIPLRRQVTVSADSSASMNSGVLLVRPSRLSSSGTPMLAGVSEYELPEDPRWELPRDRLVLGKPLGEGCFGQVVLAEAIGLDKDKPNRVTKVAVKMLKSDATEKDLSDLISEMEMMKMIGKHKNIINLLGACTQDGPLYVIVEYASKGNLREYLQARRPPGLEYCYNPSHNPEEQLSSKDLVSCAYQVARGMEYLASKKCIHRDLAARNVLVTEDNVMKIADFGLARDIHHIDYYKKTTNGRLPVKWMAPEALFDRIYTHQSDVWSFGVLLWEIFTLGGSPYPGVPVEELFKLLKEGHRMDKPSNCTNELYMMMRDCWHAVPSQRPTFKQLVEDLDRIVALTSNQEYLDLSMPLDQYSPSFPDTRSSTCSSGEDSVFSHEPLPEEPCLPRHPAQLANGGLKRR

c-Src SH2 = test: SH2 binding enrichment of the phosphorylated peptide, bacterial display (enrichment ratio); higher = better substrate or ligand; peptides without Tyr show the background
Grb2 SH2 = Grb2 SH2 (UniProt P62993); test: as above
Sequence of Grb2 SH2 (P62993 whole entry, looked up): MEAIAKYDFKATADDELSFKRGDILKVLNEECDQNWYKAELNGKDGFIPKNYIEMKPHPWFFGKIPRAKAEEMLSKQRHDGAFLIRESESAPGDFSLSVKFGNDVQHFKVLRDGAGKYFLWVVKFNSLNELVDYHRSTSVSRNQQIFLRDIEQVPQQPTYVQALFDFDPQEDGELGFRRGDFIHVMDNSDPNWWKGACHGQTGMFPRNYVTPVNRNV

SHP2-C SH2 = test: as above
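Wherever SH2 binding enrichment of the phosphorylated peptide, bacterial display is given: peptide library displayed on the E. coli surface as eCPX fusions, selected cells deep-sequenced, score is each peptide's frequency after selection divided by its frequency in the input.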
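Wherever phosphorylation enrichment, bacterial display is given: 11-residue human phosphosite peptides and single-mutation variants displayed on the E. coli surface, counted by deep sequencing, each peptide's frequency after selection divided by its frequency in the unselected input library; frequency after pTyr selection over input frequency; kinase dosed for 20-30% of maximal phosphorylation in three min.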

Sequence of Hck (P08631 whole entry, looked up): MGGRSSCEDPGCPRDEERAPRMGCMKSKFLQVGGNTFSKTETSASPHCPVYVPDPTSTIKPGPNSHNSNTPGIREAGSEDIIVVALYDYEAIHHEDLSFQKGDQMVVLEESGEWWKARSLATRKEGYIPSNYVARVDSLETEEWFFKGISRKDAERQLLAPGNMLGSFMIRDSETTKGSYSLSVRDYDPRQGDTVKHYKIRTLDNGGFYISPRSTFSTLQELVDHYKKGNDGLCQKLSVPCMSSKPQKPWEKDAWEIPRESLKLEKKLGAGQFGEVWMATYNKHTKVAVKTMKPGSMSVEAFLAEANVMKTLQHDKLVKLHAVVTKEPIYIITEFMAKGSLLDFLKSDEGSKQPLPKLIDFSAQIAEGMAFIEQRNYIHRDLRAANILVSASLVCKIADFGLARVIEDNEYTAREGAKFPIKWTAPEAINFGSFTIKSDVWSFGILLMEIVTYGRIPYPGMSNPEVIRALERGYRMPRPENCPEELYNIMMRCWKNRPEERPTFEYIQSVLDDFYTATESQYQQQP

Sequence	phosphorylation enrichment (c-Abl (mouse))	phosphorylation enrichment (Fer (mouse))	phosphorylation enrichment (Hck)	phosphorylation enrichment (c-Src)	phosphorylation enrichment (FGFR3)	phosphorylation enrichment (Fyn)	phosphorylation enrichment (MERTK)	phosphorylation enrichment (EPHB1)	phosphorylation enrichment (Jak2)	phosphorylation enrichment (EPHB2)	phosphorylation enrichment (AncSZ)	phosphorylation enrichment (Fes)	phosphorylation enrichment (FGFR1)	SH2 binding enrichment (c-Src SH2)	SH2 binding enrichment (Grb2 SH2)	SH2 binding enrichment (SHP2-C SH2)
PPPPAYDDMAQ [TNK2_Y635_V638M]	0.597	0.551	0.647	0.526	0.762	0.544	0.675	0.441	1.14	0.632	1.25	1.04	0.492	1.37	0.699	0.543
SISLKYEGRVY [ABL1_Y167_R166K]	0.983	0.499	0.507	0.511	0.897	0.47	0.451	0.663	1.24	0.747	1.13	1.38	0.51	0.388	0.814	0.66
KSPGEYVNIEF [IRS1_Y896]	0.706	0.505	0.575	0.47	1.06	0.49	0.546	0.653	0.623	0.736	0.906	0.812	1.35	4.93	3.04	1.26
LGGSPYPRVPV [FGFR1_Y701_G703R]	0.483	0.444	0.412	0.426	0.471	0.429	0.4	0.356	0.507	0.426	0.435	0.55	0.47	0.469	0.784	0.836
FEPDAYFDLDQ [ELP5_Y302_D303Y_YF]	0.91	0.648	0.622	0.584	4.43	0.598	0.477	0.678	1.82	0.656	1.52	1.34	5.04	0.501	0.814	0.499
HVIKFYGACSQ [RET_Y791_L790F]	1.4	0.576	0.779	0.564	1.08	0.759	0.545	0.956	1.3	0.851	1.5	1.75	0.871	0.546	0.833	0.773
VSFDEYRFRSF [CFTR_Y515_V520F_YF]	0.982	0.502	0.484	0.561	0.739	0.569	0.45	0.612	1.11	0.568	0.903	1.12	0.514	0.393	0.834	0.715
LKDEDYLKDTV [HAUS3_Y582_I586T]	1.37	0.928	1.67	0.838	1.63	1.99	1.04	1.7	2.34	1.67	3.63	3.04	1.88	0.478	0.708	0.501
SAQHHYESLQT [BIN1_Y157_R154Q]	0.601	0.703	0.513	0.433	0.442	0.418	0.504	0.463	0.484	0.402	0.763	0.622	0.47	36.4	0.781	0.903
VDTGVYAVPPP [BCAR1_Y410_S407T]	20.7	5.77	7.67	4.89	1.14	8.6	9.22	8.36	0.827	20.2	2.39	0.799	1.28	0.556	0.775	0.602
RNFDTYTAGLS [RHBDD1_Y264_YF]	0.436	0.394	3.7	1.15	0.355	0.9	0.452	1.9	0.511	3.55	0.62	0.802	0.407	0.428	0.664	0.514
ARGTRYRFVSQ [UCN3_Y95_YF]	0.63	0.492	0.546	0.607	0.535	0.52	0.48	0.416	0.742	0.41	0.597	0.548	0.483	0.458	0.627	0.407
FKNGDYNEVMK [LCT_Y1638]	0.578	0.41	0.541	0.388	0.548	0.389	0.388	0.578	0.595	0.415	0.882	0.903	0.579	1.77	0.744	0.642
NHFKIYNLFAE [PTEN_Y68_C71Y_YF]	0.573	0.946	1.53	1.64	1.36	2.73	0.329	0.931	0.612	1.14	1.14	1.33	0.933			
PQGVGYPPQPQ [EP300_Y2219_Q2223P]	0.931	0.815	0.571	0.802	0.569	0.564	0.74	0.503	0.926	0.53	0.972	0.904	0.695	0.666	0.998	0.716
SHKELYKWFTS [DYNC1H1_Y3051_E3048K]	0.566	0.574	0.566	0.576	0.501	0.513	0.66	0.544	0.717	0.439	0.634	0.812	0.897	0.777	1.02	1.05
DPHECYAKVFD [ALB_Y394]	0.692	0.584	0.582	0.665	0.749	0.488	0.42	0.593	0.88	0.591	1.11	1.14	0.506	3.02	0.987	1.32

Sequence	phosphorylation enrichment (c-Abl (mouse))	phosphorylation enrichment (Fer (mouse))	phosphorylation enrichment (Hck)	phosphorylation enrichment (c-Src)	phosphorylation enrichment (FGFR3)	phosphorylation enrichment (Fyn)	phosphorylation enrichment (MERTK)	phosphorylation enrichment (EPHB1)	phosphorylation enrichment (Jak2)	phosphorylation enrichment (EPHB2)	phosphorylation enrichment (AncSZ)	phosphorylation enrichment (Fes)	phosphorylation enrichment (FGFR1)	SH2 binding enrichment (c-Src SH2)	SH2 binding enrichment (Grb2 SH2)	SH2 binding enrichment (SHP2-C SH2)
SRDTRYLVLAV [AMH_Y195]	0.739	0.552	0.476	0.514	0.683	0.492	0.487	0.636	0.909	0.559	0.93	1.1	0.543	0.811	1.13	2.34
VRTGIYHGREP [PIK3CA_Y361_G364R]	0.581	0.374	0.638	0.503	0.46	0.357	0.291	0.302	0.491	0.38	0.478	0.599	0.324	0.568	1.06	0.766
CTTIYYNYMCN [TP53_Y234_H233Y]	6.37	2.86	6.93	6.51	9.96	8.51	7.86	4.95	5.1	4.3	1.54	1.03	12.1	3.1	3.51	2.23
QYQLKYSETPF [SIX6OS1_Y129]	0.808	0.43	0.722	0.519	0.769	0.591	0.838	0.743	0.7	0.907	1	1.1	0.598	0.607	0.868	0.598
DKGTLYIAEQI [PLBD1_Y375_V377A]	0.65	0.372	0.447	0.383	0.666	0.459	0.346	0.565	0.743	0.446	0.763	0.887	0.441	0.44	0.664	0.54
RCNHPYLINGA [CHD7_Y1256_C1251R]	0.578	0.505	0.506	0.481	0.569	0.401	0.429	0.249	0.646	0.518	0.664	0.68	0.464	0.732	0.931	0.693
DPLLTYLFPPK [LMNA_Y481_R482L]	0.836	0.481	0.87	3.12	2.62	1.8	0.772	0.992	2.79	0.781	2.2	1.08	4.35	0.574	0.991	1.19
EVKAQNEDIAQ [KRT1_Y358_Y358N]	0.51	0.411	0.488	0.427	0.584	0.413	0.511	0.422	0.767	0.549	0.86	0.867	0.54	0.587	0.977	0.669
PLGVPYLDKPP [JMJD7_Y31_A28G]	1.57	0.574	0.463	0.909	0.825	0.679	0.942	0.901	1.55	0.794	0.955	1.64	0.6	0.46	0.862	0.645
QAIDEYEKWLE [MAP9_Y603_N601D]	0.85	0.581	0.607	0.479	1.34	0.66	0.996	1.06	1.46	0.716	1.5	1.41	0.515	0.432	0.757	0.805
DAANNYARGHF [TUBA3E_Y103_S101N_YF]	1.06	0.431	0.426	0.468	0.403	0.425	0.544	0.382	0.391	0.626	0.698	0.652	0.422	0.531	0.665	0.823
EWLRRYLKNGK [HLA-C_Y195_E197K]	0.546	0.471	0.522	0.504	0.516	0.439	0.581	0.373	0.679	0.578	0.68	0.636	0.507	0.436	0.656	0.409
DTQNSYGCATS [TSC1_Y304]	0.884	0.483	0.498	0.555	0.707	0.433	0.393	0.432	0.489	0.445	0.7	0.834	0.422	0.595	0.867	0.918
LANNEYFFRVC	0.698	0.505	0.53	0.55	1.47	0.74	0.517	0.733	1.38	0.917	1.23	1.19	1.31	0.634	1.05	0.884
ESMQSYDLDYP [UNC13B_Y243_D238E]	0.933	0.495	0.615	0.544	0.686	0.536	0.466	0.651	0.991	0.534	1.16	1.26	0.698	0.851	0.681	0.538
KIIRWYVSSEG [ANK2_Y3907_R3906W]	0.747	0.543	0.498	0.455	0.784	0.51	0.415	0.69	1.2	0.679	1.31	1.34	0.55	1.18	1.19	1.51
